The target in test [1] is CD3D&E protein (Cat #: CT038-H2508H, Sino Biological) (human) (UniProt P04234). The experiment in a line: phage ELISA on CD3D&E protein, detection with HRP anti-M13 antibody. In general terms: ELISA stands for enzyme-linked immunosorbent assay.
Test [2] concerns the target BCMA-his protein (Cat #: BCA-H522y, ACRO) (human) (UniProt Q02223). The experiment in a line: phage ELISA on BCMA-his protein, detection with HRP anti-M13 antibody.

The term EC50 (read off the curve) denotes the midpoint of the concentration-response curve.

CD3D&E protein (Cat #: CT038-H2508H, Sino Biological) (human), sequence (P04234 22-105, chain 1 of 2): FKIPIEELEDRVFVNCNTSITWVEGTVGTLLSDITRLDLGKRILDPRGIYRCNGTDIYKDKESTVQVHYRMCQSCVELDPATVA
CD3D&E protein (Cat #: CT038-H2508H, Sino Biological) (human), sequence (P07766 23-126, chain 2 of 2, further chain): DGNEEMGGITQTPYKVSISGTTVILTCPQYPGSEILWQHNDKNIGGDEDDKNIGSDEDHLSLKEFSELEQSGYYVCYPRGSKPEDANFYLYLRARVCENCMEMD
BCMA-his protein (Cat #: BCA-H522y, ACRO) (human), sequence (Q02223 1-54 limits assumed): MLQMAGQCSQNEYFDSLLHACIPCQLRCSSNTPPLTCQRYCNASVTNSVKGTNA

B1: anti-CD3D&E antibody 7-1A12 scFv displayed on phage (scFv, part only; not given: scFv linker, part only)
scFv, part: EVQLVESGGGLVQPGRSLRLSCAASGFTFSDYTMHWVRQAPGKGLEWVSGISWNTGTIGYADSVKGRFTISRDNAKKSLYLQMNSLRAEDTALYYCAKDNSGYGHYYFGMDVWGQGTTVTVASEIVMTQSPATLSVSPGERATLSCRASQSVSRNVAWYQQKPGQAPRLLIYGASTRQTGIPARFSGSGSGTEFTLTISSLQSEDFAVYYCQSYINWPLQFGGGTKVEIK
Regarding B1, the EC50 (read off the curve) in test [1] turned out to be 4 µg/mL.

B2: anti-CD3D&E antibody D1E9 scFv displayed on phage (scFv, part only; not given: scFv linker, phage coat fusion, V domains shown, not shown: another chain or arm of the molecule; large carriers; small tags and cut ends)
VH: EVQLVESGGGLVQPGRSLRLSCAASGFTFDDFAMHWVRQAPGKGLEWVSGITWNSGSVGYADSVKGRFTISRDNAKKSLYLQMNSLRAEDTALYYCAKDRSGYGHYYYGMDVWGQGTTVTVAS
VL: EIVMTQSPATLSVSPGERATLSCRASTSVSHNVAWYQQKPGQAPRLLIYGASTKVTGIPARFSGSGSGTEFTLTISSLQSEDFAVYYCQHYINWPLTFGGGTKVEIK
In test [1], B2 had an EC50 (read off the curve) of 20 µg/mL.

B3: anti-BCMA antibody A6-3 scFv displayed on phage (scFv, part only; not given: scFv linker, phage coat fusion, V domains shown, not shown: another chain or arm of the molecule; large carriers; small tags and cut ends)
VH: QVQLVQSGAEVKKPGASVKVSCKASGYTFTNHIIHWVRQAPGQGLEWMGYINPYPGYHGYNDKFSGRATMTSDTSTSTVYMELSSLRSEDTAVYYCARDGYYRDQDVLDYWGQGTLVTVSS
VL: DIQMTQSPSSLSASVGDRVTITCKASQDISQYLNWYQQKPGKAPKLLIYYTSGLHPGVPSRFSGSGSGTDFTFTISSLEPEDIATYYCQQGYALPWTFGQGTKVEIK
B3 registered an EC50 (read off the curve) in test [2] of 1 µg/mL.

For the origin of these results see patent publication US20230348630A1.
